# Measured values as given in patent US20250034594A1, “RNA-GUIDED GENOME RECOMBINEERING AT KILOBASE SCALE” (THE BOARD OF TRUSTEES OF THE LELAND STANFORD JUNIOR …, priority 2021, published 2025).
# What was measured:
# Assay type in all cases: cell-based
# [1] = test system: gene editing with Cas9 and dCas9; experiment: Screen of 322 new SSAP proteins, activity across all experiments (Cas9 and dCas9, Table 5); set-up: scale not given here
# Method in brief: (§1)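 Synthetic SSAP candidates, identified computationally, were tested in editing screens using both Cas9 and dCas9.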
# [2] = test system: gene editing with dCas9; experiment: Screen of 322 new SSAP proteins, gene editing activity with dCas9 (Table 5); set-up: dCas9 with SSAP activity: scale not given here
# Method in brief: as §1
# [3] = test system: gene editing with Cas9; experiment: Screen of 322 new SSAP proteins, gene editing activity with Cas9 (Table 5); set-up: Cas9 with SSAP activity: scale not given here
# Method in brief: as §1
molecule,measurement,setting,value
"SSAP_248: SEQ ID NO: 417; Peptoniphilus senegalensis (protein, listed as Peptoniphilus senegalensis) TNQIARKPVNEIKNVLSVPSVRNLFDNALADNAGAFVSSLIDLYGGDSYLQNCEPKDVVMEALKAATLKLPINKNLGFGYVVPFKNKNGKLVPTFIIGYKGLIQLAMRTGQYKAINSGIIYEGMEIKEDVLRGTLEIKGSKQSEKIKGYFAYFQLINGFEKALYMDVEEAADWGRKYSKSFAKGPWTTEFDAQAQKTCLRRLLSKYGVLSTEMQRLEKTEEDVDIAVGTIENNAVEELNIPSSQADYIVDEETGEILDDEEIVAPF",Activity across all experiments,[1],−3.063
same,dCas9 with SSAP activity,[2],−5.272
same,dCas9 with SSAP activity (normalized),[2],−0.814
same,Cas9 with SSAP activity,[3],−0.854
same,Cas9 with SSAP activity (normalized),[3],−1.210
"SSAP_110: SEQ ID NO: 279; Aneurinibacillus tyrosinisolvens (protein, listed as Aneurinibacillus tyrosinisolvens) SDLKEKLEKRANETEAAPPSPAQTIAAYLKRMEPEIARALPKHMDVERLTRIALTTIRTNPRLLECTVPSLLGAVMQAAQLGLEPGLLGQCYIIPHGREATFIIGYKGMIDLARRSGNIKSIYAHDVRENDEFEYEYGLHPFLKHRPAMTDRGKFIGVYAVAHFNDGGYQFEFMPYEEIERRKLRSRSYKNGPWVTDYEEMAKKTVIRHMFKYLPLSVEIMRSAAQDETVRPDLTSDPVSIYERPIEGKIITAEDVQPEEIPNVPDAEQGDV",Activity across all experiments,[1],−3.889
same,dCas9 with SSAP activity,[2],−5.104
same,dCas9 with SSAP activity (normalized),[2],−1.491
same,Cas9 with SSAP activity,[3],−2.674
same,Cas9 with SSAP activity (normalized),[3],−0.477
SSAP_85: SEQ ID NO: 254 (protein) TASKQTDIFSFVSGGEDITITLADIKNYFCANATDQECVLFGQLCKANGLNPWLKEAYLIKYDKNAPAAMVTGKDAYMKRANEHPAFDGYEAGVKVYLPDVGQVEYREGTAYYEDLGEQLIGGYAKVYRKDRSRPYYEEVPLKEYDTKQSKWKTSPATMIRKVALVHALREAFPTNIQGMYDADETPYAADYEGSFREMDDPTPAPSMRGRIAPAPVADPLEDLEADVIEAGDVE,Activity across all experiments,[1],−2.702
same,dCas9 with SSAP activity,[2],−5.091
same,dCas9 with SSAP activity (normalized),[2],−1.071
same,Cas9 with SSAP activity,[3],−0.312
same,Cas9 with SSAP activity (normalized),[3],−0.125
"SSAP_168: SEQ ID NO: 337; Romboutsia lituseburensis (protein, listed as Romboutsia lituseburensis) SNLKNVLKNQEDKGQGITVNPTYAMKQLMIKMKNDIDLALPKNLSSERFQKVSMSAFNNNEKLQNCEPTTFIAAMMQSAQLGLEPNTPLGQVYLIPHNLNGVDKVQFQVGYKGLLQLAHRSGKLKTLYAHEVKENDEFEIDYGLEQKLIHKPLLKGNRGDVIGYYAVYHLEPSGYSFEFMTYDEVAKHGKKYSKDFEGGIWEKDFDSMAKKTVIKKLLKYAPLSIEMQKAVAFDESVKSSIDSDMLLVESIGE",Activity across all experiments,[1],−2.237
same,dCas9 with SSAP activity,[2],−5.210
same,dCas9 with SSAP activity (normalized),[2],−0.836
same,Cas9 with SSAP activity,[3],0.735
same,Cas9 with SSAP activity (normalized),[3],1.158
SSAP_61: SEQ ID NO: 230 (protein) ATSLKRAVTGDGKPATVQQLLTNPKIKSQIALALPQHLTPERLTRIVLTEIRRTPALAKCKPESLLAAVMQCAQLGLEPGGSLGHAWLMPFKNEVQFIIGYRGMIDLARRSGQVLSIEARGVYESDTFHVSFGLEPDLTHQPDWDPADRGKLAFVYAVARLKDGGFQFDVMSRAEVEKIRAQSPAGKSGPWVTHFEEMAKKTVIRRLFKYLPVSVEMARAVGLDEAAERGEQSDAIDADCVIESEEEATPEEKGDSAA,Activity across all experiments,[1],−3.303
same,dCas9 with SSAP activity,[2],−5.258
same,dCas9 with SSAP activity (normalized),[2],−0.804
same,Cas9 with SSAP activity,[3],−1.348
same,Cas9 with SSAP activity (normalized),[3],−0.539
